In patent JP2021155343A (dated 2021):

Target: T1, ヒトeIF5Aタンパクの(44−72番目)のアミノ酸残基から成るペプチド (human, UniProt P63241 44-72)
T1 construct: range 44-72; The peptide was coupled to KLH for immunisation; also called human eIF5A (44-72) peptide
Test: ELISA screening of hybridoma monoclonal antibodies

T1 sequence (P63241 44-72 limits assumed): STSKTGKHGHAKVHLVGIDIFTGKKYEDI

binding result: binds
B1: 抗ORAIP抗体(クローン YSP5−45−36) (antibody, V domains shown)
VH: EVKLVESGGGLVQPGGSLRLSCATSGFTFTDYYMSWARQPPGKALEWLGFIRNKANGYTTEYSASVKGRFTISRDNSLGILYLQMNTLRPEDSATYYCARNYYGTSFSWFAYWGQGTLVTVSA
VL: MTQTPLSLSVSLGDQASISCRSSQSIVHFNGNTYLEWYLQKPGQSPKLLIYKVSSRFSGVPDRFSGSGSGTDFTLKISRVEAEDLGVYYCFQGSHVPPTFGGGTKLEIK
notes: Mouse monoclonal antibody from a hybridoma (mouse spleen cells fused with mouse myeloma cells); also called モノクローナル抗体(クローン YSP5−45−36); clone YSP5-45-36
